In patent publication US20220072087A1, “SPECIFIC COMBINATION THERAPY FOR TREATMENT OF PANCREATIC CANCER” (BioLineRx Ltd., priority 2019, published 2022) one finds solubility, effect on viability and IC50 data, which are given here for one substance.

Data set [1] can be described thus: solubility of BL-8040 powder. Type of data set: physicochemical.
Another data set deals with human keratinocytes. As to conditions: cited from earlier work.
The subject of data set [2] is normal human hematopoietic cells. As to conditions: cited from earlier work.
For the next data set, the target named is CXCR4 (Homo sapiens, UniProt P61073). To be noted: read-out: IC50 (binds to CXCR4 with high affinity); cited from earlier work.
Sequence of CXCR4 (P61073 whole entry, species assumed): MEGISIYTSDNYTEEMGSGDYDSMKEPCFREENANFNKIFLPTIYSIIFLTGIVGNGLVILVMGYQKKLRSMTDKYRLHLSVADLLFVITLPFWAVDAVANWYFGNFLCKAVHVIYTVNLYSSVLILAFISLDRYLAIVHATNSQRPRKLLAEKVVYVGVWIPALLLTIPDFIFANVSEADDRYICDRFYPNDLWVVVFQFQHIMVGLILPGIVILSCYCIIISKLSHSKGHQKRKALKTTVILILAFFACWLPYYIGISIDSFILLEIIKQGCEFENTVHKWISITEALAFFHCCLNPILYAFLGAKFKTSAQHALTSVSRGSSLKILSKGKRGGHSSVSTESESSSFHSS

pIC50: −log10 of the molar value. Bridge positions count the residues as written; N and C are the ends. Square brackets hold non-standard residues; d marks the D form. * marks the point of attachment. 2Nal = N[C@@H](Cc1ccc2ccccc2c1)C(=O)O; Benzoyl(4-F) = O=C(c1ccc(F)cc1)*; Cit = NC(=O)NCCC[C@H](N)C(=O)O

Take “BL-8040 ({Benzoyl(4-F)}-RR[2Nal]CY[Cit]K[dK]PYR[Cit]CR-NH2; disulfide 4-13 (inferred))”: the solubility result in data set [1] (in 0.45% Sodium Chloride (half normal saline)) and in data set [1] (in water) was “freely soluble” in each case. Also, the effect on viability result (with human keratinocytes; in data set [2]) was “did not affect the viability” each time. In the data set with CXCR4, the pIC50 was 8.35 to 9.27.

As usually defined, the pIC50 is the IC50 on a negative log10 scale, so that one unit is a factor of ten.
